Reference: patent US20050069907A1, “Methods for using double-mutant RNA polymerases with reduced discrimination between non-canonical and canonical nucleoside triphosphates” (priority 2002, published 2005)

Legend:
Format in all cases: biochemical
[1] = system: poly(rC); test: Activity on an RNA (poly(rC)) template
Protocol: T7 RNAP as a reverse transcriptase or RNA replicase which initiates de novo: It has been reported that T7 RNAP can use both RNA and DNA templates (Konarska and Sharp, 1989). Therefore, it was determined if the Y639F mutant would use dNTPs when transcribing an RNA template (poly(rC), see Table IV).
Numbers give mean and range from 3 experiments. Template was at 0.2 mg/ml, polymerases at 10^−6 M. Labeling NTPs were α-P^32 rGTP, α-P^32 dGTP.

[2] = system: supercoiled pT75; test: Kinetic constants (Km, kcat) with rNTPs or dNTPs
Source text: 1. One first determines the Km and the kcat for each enzyme (mutant and wild-type) using the non-canonical nucleotide as a substrate and using the canonical nucleotide as a substrate, as was described previously (Patra, et al., 1992). The value “Km” expresses how readily the enzyme will bind the substrate (a larger Km implies weaker binding) and “kcat” expresses the rapidity with which the substrate, once bound by the enzyme, is reacted upon.
2. One next calculates the numerical value for kcat/Km for each enzyme and for each substrate. By broad scientific consensus, the specificity of an enzyme for a substrate is felt to be most suitably expressed by this ratio.
3. For each enzyme, one then calculates the numerical value obtained by using the value of kcat/Km for the canonical substrate in the numerator and kcat/Km for the non-canonical substrate in the denominator. This number indicates how much a given enzyme discriminates between the two substrates. […] If this value is greater than 1, then the enzyme discriminates by that factor between the two substrates; for example, if the value is 100, then the enzyme discriminates by a factor of 100 in favor of the canonical substrate compared to the non-canonical substrate. Similarly, a value less than 1 means that the enzyme discriminates in favor of the non-canonical substrate over the canonical substrate.
4. Finally, one compares the numerical value calculated in step 3 above for the wild-type (W.T.) enzyme with the value calculated in step 3 for the mutant enzyme. If the value calculated for the mutant enzyme is less than the value calculated for the wild-type enzyme, then the mutant enzyme “has a reduced discrimination for the non-canonical substrate compared to the wild-type enzyme.” For example, if the values calculated in step 3 are 100 for the wild-type enzyme and 10 for the mutant enzyme, then the discrimination of the mutant enzyme in favor of the canonical substrate (or against the non-canonical substrate) is reduced 10-fold compared to the discrimination of the wild-type enzyme.
Determination of NTP Km and kcat was as described previously (Patra, et al., 1992).
The increased utilization of dNTPs by Y639F is due to both a decreased Km and an increased kcat for dNTPs: The Km and kcat of the W.T. and Y639F polymerases with rATP, rITP and 5 different dNTPs were measured (see, Table VI).

[3] = system: HindIII-cut pT75; test: Run-off transcription with 2′-OMe- or 2′-azido-NTPs on HindIII-cut pT75; details: for Reduction of run-off transcript synthesis: 2′-OMe-UTP; for Reduction of run-off transcript yields relative to 4 NTPs: 2′-azido-UTP
Protocol: RNAPs were prepared as described (Brieba, L G, and Sousa, R. Biochemistry, 39: 919-923, 2000). Transcription reactions were carried out for 30 min. at room temperature in 40 mM Tris-Cl, pH 8.0, 6 mM MgCl2, 10 mM NaCl, 2 mM spermidine, with templates at 10^−7 M and RNAPs at 2×10^−7 M. All NTPs were used at 0.5 mM, and transcripts were labeled by inclusion of 1% v/v 800 Ci/mM […] in the reaction. Modified NTPs were from Trilink Biotechnologies. Reactions were stopped by addition of an equal volume of 90% formamide, 50 mM EDTA, 0.01% xylene cyanol, resolved by electrophoresis in 20% acrylamide, 1% bis-acrylamide, 1×TBE gels, and visualized on a Molecular Dynamics Phosphorimager.
With the pPK5 template, UMP and CMP are not incorporated into the first 9 nt of RNA. Incorporation of non-canonical NMPs during synthesis of the first 9 nt of RNA is expected to cause greater reductions in run-off transcript synthesis because the RNA is readily released from the transcription complex during this initial phase of transcription. Therefore, if incorporation of a non-canonical NMP is slow, the RNA will usually dissociate before the NMP is incorporated. […] To see whether NMPs with bulky 2′-substituents could be incorporated during the initial phase of transcription a Hind-III linearized pT75 (Tabor, S. and Richardson, C. C., “A bacteriophage T7 RNA polymerase/promoter system for controlled exclusive expression of specific genes,” Proc. Natl. Acad. Sci. USA 82:1074-1078, 1985) was used. On this template, UMP is first incorporated at +14 while CMP is incorporated at +6 and +7. In reactions with 2′-OMe-UTP run-off transcript synthesis is reduced 11-fold, 5-fold, and <2-fold with the wild-type, and the Y639F, and Y639F/H784A mutants, respectively (FIG. 2c; lanes 2, 6, 10). However, in reactions with 2′-OMe-CTP run-off transcription is undetectable with the wild-type or Y639F enzymes (FIG. 2c; lanes 3, 4, 7, 8), and is reduced ˜700-fold with Y639F/H784A (FIG. 2c; lanes 11, 12).
Run-off transcript yields in reactions with HindIII-cut pT75 and 2′-azido-UTP are reduced 18-, 8.5-, and <2-fold with wild-type and Y639F and Y639F/H784 mutants, respectively (FIG. 2d; lanes 2, 6, 10), relative to reactions with 4 NTPs (FIG. 2d; lanes 1, 5, 9). In reactions with 2′-azido-CTP, or both 2′-azido-CTP and 2′-azido-UTP, run-off transcription is undetectable with the wild-type enzyme (FIG. 2d; lanes 3, 4), is reduced 65-fold with Y639F (FIG. 2d; lanes 7, 8), but is reduced only 7-fold with Y639F/H784A (FIG. 2d; lanes 11, 12).

[4] = .5 mM GTP, mean and range from 3 experiments
[5] = rATP, ranges from 3 experiments
[6] = 2′-azido-CTP, or both 2′-azido-CTP and 2′-azido-UTP

Substance | Activity on poly(rC) template ([1]; 1 mM GTP) | Activity on poly(rC) template ([1]; 1 mM dGTP + .5 mM GMP) | Activity on poly(rC) template [1, 4] | Discrimination rNTPs vs. dNTPs: average kcat/Km of four rNTPs over average kcat/Km of four dNTPs [2] | Kcat ([2]; DTTP) [s⁻¹] | Km ([2]; DTTP) [µM] | Kcat ([2]; dATP) [s⁻¹] | Km ([2]; dATP) [µM] | Kcat ([2]; dCTP) [s⁻¹] | Km ([2]; dCTP) [µM] | Kcat ([2]; dGTP) [s⁻¹] | Km ([2]; dGTP) [µM] | Kcat ([2]; dUTP) [s⁻¹] | Km ([2]; dUTP) [µM] | Kcat ([2]; rATP) [s⁻¹] | Km [2, 5] [µM] | Kcat ([2]; rITP) [s⁻¹] | Km ([2]; rITP) [µM] | Reduction of run-off transcription ([3]; 2′-OMe-CTP) | Reduction of run-off transcript synthesis [3] [fold] | further results
W.T.: wild-type T7 RNA polymerase [reference compound] | <.5 | <.5 | 1000 | about 120 fold | 26 to 29 | 209 to 262 | 6 to 9 | 2000 to 5000 | 9 to 14 | 4300 to 13500 | 5 to 9 | 602 to 701 | 25 to 39 | 4400 to 9000 | 190 to 220 | 34 to 68 | 170 to 230 | 29 to 59 | undetectable | 11 | Activity on poly(rC) ([1]; dGTP or dGTP+rGMP): not measurably active; Reduction of run-off transcription [3, 6]: undetectable; Reduction of run-off transcript yields relative to 4 NTPs [3]: 18 fold
Y639F: T7 RNAP with wild-type tyrosine at position 639 substituted by phenylalanine | 62 (48-80) | 116 (90-148) | 505 (358-733) | about 6 fold | 70 to 110 | 38 to 59 | 50 to 70 | 200 to 350 | 50 to 90 | 920 to 1600 | 30 to 50 | 185 to 264 | 70 to 130 | 52 to 92 | 150 to 210 | 53 to 125 | 180 to 200 | 34 to 94 | undetectable | 5 | Reduction of activity on poly(rC) ([1]; with dGTP): ~8 fold; Reduction of activity on poly(rC) ([1]; with dGTP+rGMP): ~4 fold; kcat with dNTPs less than for rNTPs [2]: 2-4 fold; Reduced discrimination between dNTPs and rNTPs compared to wild-type ([2]; from average kcat/Km values): ~20 fold; Reduction of run-off transcription [3, 6]: 65 fold; Reduction of run-off transcript yields relative to 4 NTPs [3]: 8.5 fold
